# T1: FcγRIIa R (extracellular domain with a His tag at the C terminus) (human, UniProt P12318 34-217)
# T1 construct: extracellular domain; expressed in FreeStyle293 cells; also called FcgRIIa R; FcγRIIa type R; not shown: His tag at the C terminus
# T1 sequence (looked up): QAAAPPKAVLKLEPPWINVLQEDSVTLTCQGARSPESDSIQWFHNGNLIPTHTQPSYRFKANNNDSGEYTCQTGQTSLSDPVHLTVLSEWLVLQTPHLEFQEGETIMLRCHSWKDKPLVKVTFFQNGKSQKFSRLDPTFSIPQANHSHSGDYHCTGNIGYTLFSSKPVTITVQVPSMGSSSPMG
# Target: T1, FcγRIIa R (extracellular domain with a …)
# Assay: SPR Biacore, relative binding
row,Binder,He/Con_2aR
1,"GpH7-A5/GpH7-B3 variant I336_08L/GpL16-k0 (antibody, human IgG1, kappa, heterodimerized; mutation in one H chain; also called He Ab) heavy 1: not shown heavy 2: not shown light: DIVMTQSPLSLPVTPGEPASISCQASESLVHSNRNTYLHWYLQKPGQSPQLLIYKVSNRFSGVPDRFSGSGSGTDFTLKISRVEAEDVGVYYCSQNTHVPPTFGQGTKVEIERTVAAPSVFIFPPSDEQLKSGTASVVCLLNNFYPREAKVQWKVDNALQSGNSQESVTEQDSKDSTYSLSSTLTLSKADYEKHKVYACEVTHQGLSSPVTKSFNRGEC",110 % of GpH7-A5/GpH7-B3/GpL16-k0 (=100)
2,"GpH7-A5/GpH7-B3 variant K326_07I/GpL16-k0 (antibody, human IgG1, kappa, heterodimerized; mutation in one H chain; also called He Ab) heavy 1: not shown heavy 2: not shown light: DIVMTQSPLSLPVTPGEPASISCQASESLVHSNRNTYLHWYLQKPGQSPQLLIYKVSNRFSGVPDRFSGSGSGTDFTLKISRVEAEDVGVYYCSQNTHVPPTFGQGTKVEIERTVAAPSVFIFPPSDEQLKSGTASVVCLLNNFYPREAKVQWKVDNALQSGNSQESVTEQDSKDSTYSLSSTLTLSKADYEKHKVYACEVTHQGLSSPVTKSFNRGEC",147 % of GpH7-A5/GpH7-B3/GpL16-k0 (=100)
3,"GpH7-A5/GpH7-B3 variant K326_04F/GpL16-k0 (antibody, human IgG1, kappa, heterodimerized; mutation in one H chain; also called He Ab) heavy 1: not shown heavy 2: not shown light: DIVMTQSPLSLPVTPGEPASISCQASESLVHSNRNTYLHWYLQKPGQSPQLLIYKVSNRFSGVPDRFSGSGSGTDFTLKISRVEAEDVGVYYCSQNTHVPPTFGQGTKVEIERTVAAPSVFIFPPSDEQLKSGTASVVCLLNNFYPREAKVQWKVDNALQSGNSQESVTEQDSKDSTYSLSSTLTLSKADYEKHKVYACEVTHQGLSSPVTKSFNRGEC",135 % of GpH7-A5/GpH7-B3/GpL16-k0 (=100)
4,"GpH7-A5/GpH7-B3 variant K334_19Q/GpL16-k0 (antibody, human IgG1, kappa, heterodimerized; mutation in one H chain; also called He Ab) heavy 1: not shown heavy 2: not shown light: DIVMTQSPLSLPVTPGEPASISCQASESLVHSNRNTYLHWYLQKPGQSPQLLIYKVSNRFSGVPDRFSGSGSGTDFTLKISRVEAEDVGVYYCSQNTHVPPTFGQGTKVEIERTVAAPSVFIFPPSDEQLKSGTASVVCLLNNFYPREAKVQWKVDNALQSGNSQESVTEQDSKDSTYSLSSTLTLSKADYEKHKVYACEVTHQGLSSPVTKSFNRGEC",109 % of GpH7-A5/GpH7-B3/GpL16-k0 (=100)
5,"GpH7-A5/GpH7-B3 variant K326_08L/GpL16-k0 (antibody, human IgG1, kappa, heterodimerized; mutation in one H chain; also called He Ab) heavy 1: not shown heavy 2: not shown light: DIVMTQSPLSLPVTPGEPASISCQASESLVHSNRNTYLHWYLQKPGQSPQLLIYKVSNRFSGVPDRFSGSGSGTDFTLKISRVEAEDVGVYYCSQNTHVPPTFGQGTKVEIERTVAAPSVFIFPPSDEQLKSGTASVVCLLNNFYPREAKVQWKVDNALQSGNSQESVTEQDSKDSTYSLSSTLTLSKADYEKHKVYACEVTHQGLSSPVTKSFNRGEC",137 % of GpH7-A5/GpH7-B3/GpL16-k0 (=100)
6,"GpH7-A5/GpH7-B3 variant K334_10E/GpL16-k0 (antibody, human IgG1, kappa, heterodimerized; mutation in one H chain; also called He Ab) heavy 1: not shown heavy 2: not shown light: DIVMTQSPLSLPVTPGEPASISCQASESLVHSNRNTYLHWYLQKPGQSPQLLIYKVSNRFSGVPDRFSGSGSGTDFTLKISRVEAEDVGVYYCSQNTHVPPTFGQGTKVEIERTVAAPSVFIFPPSDEQLKSGTASVVCLLNNFYPREAKVQWKVDNALQSGNSQESVTEQDSKDSTYSLSSTLTLSKADYEKHKVYACEVTHQGLSSPVTKSFNRGEC",106 % of GpH7-A5/GpH7-B3/GpL16-k0 (=100)
7,"GpH7-A5/GpH7-B3 variant P238_04F/GpL16-k0 (antibody, human IgG1, kappa, heterodimerized; mutation in one H chain; also called He Ab) heavy 1: not shown heavy 2: not shown light: DIVMTQSPLSLPVTPGEPASISCQASESLVHSNRNTYLHWYLQKPGQSPQLLIYKVSNRFSGVPDRFSGSGSGTDFTLKISRVEAEDVGVYYCSQNTHVPPTFGQGTKVEIERTVAAPSVFIFPPSDEQLKSGTASVVCLLNNFYPREAKVQWKVDNALQSGNSQESVTEQDSKDSTYSLSSTLTLSKADYEKHKVYACEVTHQGLSSPVTKSFNRGEC",174 % of GpH7-A5/GpH7-B3/GpL16-k0 (=100)

# Now from value to binder:
row,He/Con_2aR,Binder
1,124 % of GpH7-A5/GpH7-B3/GpL16-k0 (=100),"GpH7-A5/GpH7-B3 variant H268_01G/GpL16-k0 (antibody, human IgG1, kappa, heterodimerized; mutation in one H chain; also called He Ab) heavy 1: not shown heavy 2: not shown light: DIVMTQSPLSLPVTPGEPASISCQASESLVHSNRNTYLHWYLQKPGQSPQLLIYKVSNRFSGVPDRFSGSGSGTDFTLKISRVEAEDVGVYYCSQNTHVPPTFGQGTKVEIERTVAAPSVFIFPPSDEQLKSGTASVVCLLNNFYPREAKVQWKVDNALQSGNSQESVTEQDSKDSTYSLSSTLTLSKADYEKHKVYACEVTHQGLSSPVTKSFNRGEC"
2,110 % of GpH7-A5/GpH7-B3/GpL16-k0 (=100),"GpH7-A5/GpH7-B3 variant K334_04F/GpL16-k0 (antibody, human IgG1, kappa, heterodimerized; mutation in one H chain; also called He Ab) heavy 1: not shown heavy 2: not shown light: DIVMTQSPLSLPVTPGEPASISCQASESLVHSNRNTYLHWYLQKPGQSPQLLIYKVSNRFSGVPDRFSGSGSGTDFTLKISRVEAEDVGVYYCSQNTHVPPTFGQGTKVEIERTVAAPSVFIFPPSDEQLKSGTASVVCLLNNFYPREAKVQWKVDNALQSGNSQESVTEQDSKDSTYSLSSTLTLSKADYEKHKVYACEVTHQGLSSPVTKSFNRGEC"
3,131 % of GpH7-A5/GpH7-B3/GpL16-k0 (=100),"GpH7-A5/GpH7-B3 variant K326_20W/GpL16-k0 (antibody, human IgG1, kappa, heterodimerized; mutation in one H chain; also called He Ab) heavy 1: not shown heavy 2: not shown light: DIVMTQSPLSLPVTPGEPASISCQASESLVHSNRNTYLHWYLQKPGQSPQLLIYKVSNRFSGVPDRFSGSGSGTDFTLKISRVEAEDVGVYYCSQNTHVPPTFGQGTKVEIERTVAAPSVFIFPPSDEQLKSGTASVVCLLNNFYPREAKVQWKVDNALQSGNSQESVTEQDSKDSTYSLSSTLTLSKADYEKHKVYACEVTHQGLSSPVTKSFNRGEC"
4,141 % of GpH7-A5/GpH7-B3/GpL16-k0 (=100),"GpH7-A5/GpH7-B3 variant K326_03V/GpL16-k0 (antibody, human IgG1, kappa, heterodimerized; mutation in one H chain; also called He Ab) heavy 1: not shown heavy 2: not shown light: DIVMTQSPLSLPVTPGEPASISCQASESLVHSNRNTYLHWYLQKPGQSPQLLIYKVSNRFSGVPDRFSGSGSGTDFTLKISRVEAEDVGVYYCSQNTHVPPTFGQGTKVEIERTVAAPSVFIFPPSDEQLKSGTASVVCLLNNFYPREAKVQWKVDNALQSGNSQESVTEQDSKDSTYSLSSTLTLSKADYEKHKVYACEVTHQGLSSPVTKSFNRGEC"
